This is an account of results in article PMC8162731.

In this series the test system is CC(C)(O)[C@@H](O)C(=O)O. The series can be described thus: purified protein. Particulars: aerobic. Format: biochemical, Synechocystis sp. PCC 6803.

Take “SnDHAD (Synechocystis sp. PCC 6803 substr. Kazusa)”: the Km (as-purified enzyme 0.05 μM, pH 8.0, 50 °C) was 136.3 ± 9.0 µM.
In the case of “SnDHAD (Synechocystis sp. PCC 6803 substr. Kazusa; Y477H)”, the Km (as-purified enzyme) is 108.9 ± 10.7 µM.

As a reminder, the Km is the substrate concentration at which the rate is half of its maximum.
